These results are taken from patent US20150098955A1 (VIELA BIO, published 2015).

Substitutions are numbered along the chain they refer to.

The target in test [1] is Murine MegaCD40L (Axxora, cat. ALX522120) (murine) (UniProt P27548). Nature of the test: cell-based or functional assay.
The target in test [2] is Murine CD40L on cells (D10.G4 / D10G4.1 cells; activated murine T cells) (murine) (UniProt P27548). The test is described as follows: cell-based or functional assay.
Test [3] deals with T1, Human CD40L, membrane form, on cells (Jurkat D1.1 cells; activated primary human T cells) (human, UniProt P29965 1-261).
T1 sequence: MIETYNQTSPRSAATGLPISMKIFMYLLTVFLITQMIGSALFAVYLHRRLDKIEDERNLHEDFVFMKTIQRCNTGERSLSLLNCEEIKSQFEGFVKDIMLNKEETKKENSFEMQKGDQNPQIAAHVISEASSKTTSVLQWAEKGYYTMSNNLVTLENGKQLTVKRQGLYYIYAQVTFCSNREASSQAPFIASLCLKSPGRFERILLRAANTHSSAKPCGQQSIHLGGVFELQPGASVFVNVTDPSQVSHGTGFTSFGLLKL
Nature of the test: cell-based or functional assay.

In test [4] the target is T2, Recombinant human CD40L (Human MegaCD40L; Axxora) (human, UniProt P29965 47-261, biotinylated with EZ-Link sulfo-NHS-biotin where used in the plate binding assay).
T2 construct: extracellular domain; Bought construct (Axxora ALX522110): two trimeric CD40 ligands linked via the ACRP30 collagen domain; also called biotinylated Human MegaCD40L; Mega human CD40L; not shown: FLAG tag and collagen domain of ACRP30/adiponectin that links two CD40L trimers
T2 sequence (looked up): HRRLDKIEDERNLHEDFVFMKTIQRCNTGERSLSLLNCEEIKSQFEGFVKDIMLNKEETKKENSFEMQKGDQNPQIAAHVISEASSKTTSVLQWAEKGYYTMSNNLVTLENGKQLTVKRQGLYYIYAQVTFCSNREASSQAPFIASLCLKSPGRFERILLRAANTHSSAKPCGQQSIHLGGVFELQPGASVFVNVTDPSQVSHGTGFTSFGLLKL
Nature of the test: ProteOn XPR36 biosensor, human MegaCD40L immobilized on GLC chip, Tn3 as analyte, equilibrium analysis, 25 C. On the procedure: ProteOn phosphate buffered saline with 0.005% Tween 20, pH 7.4 (PBS/Tween) was used as running buffer. Human MegaCD40L was immobilized on the chip at a surface density of approximately 2300 RU. […] Samples of each concentration were injected into the six analyte channels at a flow rate of 30 μl/min. for 300 seconds. The Kd was determined by using the equilibrium analysis setting within the ProteOn software.

The target in test [5] is T2, Recombinant human CD40L (Human …). Nature of the test: cell-based or functional assay.
Test [6] deals with Human CD40L, membrane form, on cells (Jurkat D1.1 cells; activated primary human T cells) (human) (UniProt P29965). The test is described as follows: cell-based or functional assay.
Test [7] addresses T2, Recombinant human CD40L (Human …). Nature of the test: capture ELISA: His-tagged Tn3 captured on anti-His antibody, biotinylated Human MegaCD40L detected with SA-HRP.
In test [8] the target is T1, Human CD40L, membrane form, on cells …. Nature of the test: cell-based or functional assay. The source holds these as a separate data set.
The target of test [9] is T2, Recombinant human CD40L (Human …). The test is described as follows: ProteOn XPR36 biosensor, human MegaCD40L immobilized on GLC chip, purified Tn3 as analyte. On the procedure: Outputs were pool cloned into the soluble secretion vector as previously described, and five 96-well plates were screened for CD40L binding using the soluble protein screening assay described previously. Positive hits were identified relative to the signal obtained with the 311K4E backbone variant. […] PBS, 0.005% Tween20, 3 mM EDTA, pH7.4 was used as running buffer. Off-rates were ranked by visual inspection of the sensorgrams.

Test [10] addresses T3, Murine CD40L (form not stated) (murine, UniProt P27548 112-260, limits assumed).
T3 construct: also called MuCD40L
T3 sequence (looked up): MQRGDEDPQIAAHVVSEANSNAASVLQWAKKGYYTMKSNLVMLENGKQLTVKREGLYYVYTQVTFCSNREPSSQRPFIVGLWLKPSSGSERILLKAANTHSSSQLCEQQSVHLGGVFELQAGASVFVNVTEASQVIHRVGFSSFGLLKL
Nature of the test: biosensor competition: inhibition of murine CD40L binding to immobilized murine CD40 receptor.

The molecule “MR1 anti-murine CD40L monoclonal antibody” yielded an IC50, inhibition of CD40L-induced NFκB activity in [1] of 0.2 nM. This molecule showed an IC50, inhibition of CD86 up regulation on CD19+ B cells (PBMC stimulated with D10.G4 cells) in [2] of 0.23 nM.

B1: Clone 309FGwt - Parental clone with 'humanized' FG loop (designed binder)
chain: AIEVKDVTDTTALITWSDEFGHYDGCELTYGIKDVPGDRTTIDLWWHSAWYSIGNLKPDTEYEVSLICRRGDMSSNPAKETFTTGGGTLGHHHHHHHH
Consider B1, for which the “PBMC IC50” value in [3] turned out to be 760 nM.

B2: Clone 347 - Affinity Mature variant (designed binder)
chain: B1 chain with F20V, H22Q, D24V, W46Y, S48M
notes: Secreted His8-tagged form
Consider B2, for which the “PBMC IC50” value in [3] came to 11 nM. For the same molecule, the Kd (as a rule, the equilibrium constant for the complex coming apart) in test [4] amounted to 10.7 nM.

B3: Clone 309 - Parental clone isolated from naive Tn3 library (designed binder)
chain: B1 chain with R69Y, R70T, G71D, D72Q, M73E, S74A, S75G
notes: Secreted His8-tagged form purified on Ni-NTA
For the molecule B3, the “PBMC IC50” value in [3] was 226 nM. The Kd in test [4] was found to be 191 nM.

B4: Clone 346 - Affinity Mature variant (designed binder)
chain: B1 chain with E19D, G21E, H22E, D24V, G25V
notes: Secreted His8-tagged form
Turning to B4, the “PBMC IC50” value in test [3] came out at 9 nM. Besides, in test [4], the Kd is 14.9 nM.

B5: Clone 341 - Affinity Mature variant (designed binder)
chain: B1 chain with E19D, G21A, H22D, D24V, G25W
With B5, the “PBMC IC50” value in test [3] was 0.7 nM.

B6: Clone 342 - Affinity Mature variant (w/WT FG loop) (designed binder)
chain: B1 chain with E19D, H22E, D24V, G25W, W46Y, S48H, W50H
notes: Secreted His8-tagged form
For B6, in [3], the “PBMC IC50” value was determined as 0.7 nM. For the same molecule, the “IC50, inhibition of human CD40L-induced NFκB activity (luciferase reporter HEK293 cells)” value in test [5] is 1.5 nM. In addition, the Kd in [4] was found to be 1.4 nM.

B7: Clone 345 - Affinity Mature variant (designed binder)
chain: B1 chain with E19D, G21A, H22E, D24V
notes: Secreted His8-tagged form
Take B7: the “PBMC IC50” value in test [3] was 37.3 nM. Besides, the Kd in test [4] amounted to 39 nM.

B8: Clone 340 - Affinity Mature variant (designed binder)
chain: B1 chain with E19D, G21D, H22N, D24E, G25W, W46Y, S48M
notes: Secreted His8-tagged form
For the molecule B8, in [3], the “PBMC IC50” value worked out at 0.7 nM. Further, in [4], the Kd came out at 2.2 nM.

B9: Clone 349 - Affinity Mature variant (designed binder)
chain: B1 chain with F20H, G21A, H22E, Y23F, D24I
notes: Secreted His8-tagged form
With B9, in [3], the “PBMC IC50” value is 38.2 nM. Also, the Kd in [4] stood at 21 nM.

B10: Clone 344 - Affinity Mature variant (designed binder)
chain: B1 chain with F20V, H22D, D24V, G25V, W46Y, S48M
B10: the “PBMC IC50” value in test [3] worked out at 1.3 nM.

B11: Clone 348 - Affinity Mature variant (designed binder)
chain: B1 chain with E19D, F20I, H22L, D24V, G25W, W46F, S48Q
notes: Secreted His8-tagged form
Take B11: the “PBMC IC50” value in [3] worked out at 1 nM. The Kd in [4] is 1.8 nM.

B12: Clone 343 - Affinity Mature variant (designed binder)
chain: B1 chain with S17L, E19D, F20W, H22S, D24H, G25V, W46Y, S48Q
notes: Secreted His8-tagged form
B12: in test [3], the “PBMC IC50” value amounted to 0.6 nM. The Kd in test [4] was 2 nM.

B13: 311-7GS bivalent tandem scaffold (designed binder)
chain: IEVKDVTDTTALITWTNRSSYYNLHGCELTYGIKDVPGDRTTIDLSSPYVHYSIGNLKPDTEYEVSLICLTTDGTYSNPAKETFTTGGGGSGGGGSGGGGSGGGGSGGGGSGGGGSGGGGSIEVKDVTDTTALITWTNRSSYYNLHGCELTYGIKDVPGDRTTIDLSSPYVHYSIGNLKPDTEYEVSLICLTTDGTYSNPAKETFTT
Molecule B13 registered a fold improvement over monovalent 311, inhibition of human CD40L-induced expression on CD19 positive human PBMCs in [6] of 7 fold.

B14: 311 variant with the DE loop changed to the parent Tn3 DE loop sequence (designed binder)
chain: AIEVKDVTDTTALITWTNRSSYYNLHGCELTYGIKDVPGDRTTIDLTEDENQYSIGNLKPDTEYEVSLICLTTDGTYSNPAKETFTTGGGTLGHHHHHHHH
Regarding B14, the binding result in test [7] is reported as “no binding”.

B15: Clone 311K4E - Variant from first round of affinity maturation (designed binder)
chain: B14 chain with K5E, T47S, E48S, D49P, E50Y, N51V, Q52H
notes: Secreted His8-tagged form
As for B15, the “fold increase in potency over 311 in the PBMC assay” value in test [8] is approximately 100 fold. The Kd in [9] was determined as 18 nM.

B16: Clone 311K4E_3 - Clone Variant from second round of affinity maturation (designed binder)
chain: AIEVEDVTDTTALITWINRSSYHNFPHCELAYGIKDVPGDRTTIDLNSPYVHYSIGNLKPDTEYEVSLICLTTDGTYSNPAKETFTTGGGTLGHHHHHHHH
notes: Secreted His8-tagged form
B16: in test [9], the Kd turned out to be 6.4 nM.

B17: Clone 311K4E_11 - Clone Variant from second round of affinity maturation (designed binder)
chain: B16 chain with I17T, H23A, F25L, H27G, A31T
notes: Secreted His8-tagged form
With B17, in [9], the Kd amounted to 6.3 nM.

B18: Clone 311K4E_12 - Clone Variant from second round of affinity maturation (designed binder)
chain: B16 chain with I17T, H23S, F25L, P26H, H27G, S48Q, S78N
notes: Secreted His8-tagged form
With B18, in [8], the “fold increase in potency in the PBMC assay relative to 311K4E” value amounted to 12 fold. The Kd in [9] was 1.1 nM.

B19: 309 variant with the BC loop changed to the parent Tn3 BC loop sequence (designed binder)
chain: AIEVKDVTDTTALITWFKPLAEIDGCELTYGIKDVPGDRTTIDLWWHSAWYSIGNLKPDTEYEVSLICYTDQEAGNPAKETFTTGGGTLGHHHHHHHH
As to B19, the binding result in test [7] was “no binding”.

B20: 309 variant with the DE loop changed to the parent Tn3 DE loop sequence (designed binder)
chain: AIEVKDVTDTTALITWSDEFGHYDGCELTYGIKDVPGDRTTIDLTEDENQYSIGNLKPDTEYEVSLICYTDQEAGNPAKETFTTGGGTLGHHHHHHHH
In the case of B20, the binding result in [7] was “no binding”.

B21: Clone 311K4E_15 - Clone Variant from second round of affinity maturation (designed binder)
chain: AIEVEDVTDTTALITWTNRSSYANYHHCELTYGIKDVPGDRTTIDLELYVHYSIGNLKPDTEYEVSLICLTTDGTYSNPAKETFTTGGGTLGHHHHHHHH
notes: Secreted His8-tagged form
On to B21, for which the Kd in [9] amounted to 1.6 nM.

B22: 311 variant with the BC loop changed to the parent Tn3 BC loop sequence (designed binder)
chain: AIEVKDVTDTTALITWFKPLAEIDGCELTYGIKDVPGDRTTIDLSSPYVHYSIGNLKPDTEYEVSLICLTTDGTYSNPAKETFTTGGGTLGHHHHHHHH
Turning to B22, the binding result in test [7] is “no binding”.

B23: 311-3GS bivalent tandem scaffold (designed binder)
chain: IEVKDVTDTTALITWTNRSSYYNLHGCELTYGIKDVPGDRTTIDLSSPYVHYSIGNLKPDTEYEVSLICLTTDGTYSNPAKETFTTGGGGSGGGGSGGGGSIEVKDVTDTTALITWTNRSSYYNLHGCELTYGIKDVPGDRTTIDLSSPYVHYSIGNLKPDTEYEVSLICLTTDGTYSNPAKETFTT
Regarding B23, in [8], the “fold improvement over monovalent 311, inhibition of human CD40L-induced expression on CD19 positive human PBMCs” value was approximately 7 fold.

B24: Clone M13 (murine CD40L-specific Tn3 scaffold) (designed binder)
chain: IEVKDVTDTTALITWHDAFGYDFGCELTYGIKDVPGDRTTIDLPDHFHNYSIGNLKPDTEYEVSLICANDHGFDSNPAKETFTT
notes: also called monovalent M13
As for B24, the IC50 (commonly the midpoint of a concentration-inhibition curve) in [10] amounted to 71 nM.
